Measured values published in the DeepSol protein solubility set.

test: soluble on expression in E. coli; label from the status in PepcDB or PDB records

Row | Sequence | soluble on expression in E. coli
1 | MSISWSMSRNMFKLAHISDVHLGPLPRLSIQELFSKRITGFVNWHRNRRKHLFASTLDLLLDDIRTHRADHLAVTGDLVNLASGIEIRAAAAWLRALGDPADTSVVPGNHDAYVPGAYEKSMRAWYDYVRGDLAPPQWQEDRRIFPYLRVRDKVAIVGCSTAVATPPFAASGFFSARQARDTVNMLRAAGEAGLFRVVMIHHPPIRGATAFHKRMIGIRRFAAVISTGGAELVLHGHTHLNTLHWLRGQVQPVPVVGIASASQGPGSIKPPAAYNLFSIDGAPGAWELTGERFSLNRTGDAMMPESVDIFAPLEHHHHHH | not soluble
2 | MGSDKIHHHHHHMVSPVVARIIELLPDSCVGFIGKRILNMYLNKYADINVHGMENLKGIDKPIMFIGNHLSNSDGLVLNKVLKDYDVTFVAGVKLKGDAITNLGTYCVKTTEIKPNTADKDGIYRVIDILKSNHNILMFPEGTRSRTGAMIEAKRGPLFIAKLSKAIIVPVGICGSEKLLPINKEGNMSNENFHHAKVEVNIGKPFYFDKRMKEESKKDYEKRALDNAMYKIAELIPENYRGVYSDIKKVL | not soluble
3 | MSLAPSNSLEICGDGVKNPTTFTRAQLEDMPQYQQVYSSINTWPSKKWYVGKGVHLSELLSLVGIKDDARLLKFTSQDGYTMTLTVKELLVDKRYYFPHFNDNKIGDGEGNIAGSSQGAELVEPIIALISVEGSNNPNYMNDLNTLVLMMGQRAVTEQTGNAFVKYLNKIEVLTSEVPKWDSPQANPGSGEVSAGTMIALSTARMDDDKIYYTTDGSTPNLNSPIYNWIAKRWWSARADILGTYNHPIGPINENTTIKAITIGPGKENSDVATFTYTVPVSKPASETSIVAPNEATNYPDQALEKPLQSEPKATLTDVQNHWAQKNINELIASGIAGGYPDSSFRPDNTITRAEFATMLVKAFNLQNQGGKVFADSEQHWAKEYISRATASGVVSGYDAENFGPDKLITREQMAVMISKAAKLVLKAEAMHFADSAGISEWAKEAVLAANQSGIVKGYPDNTIRPQGSATRAEAVTVIVNALTLKEGHHHHHH | soluble
4 | MSTSDTPRTYHHGNLPAVLRQAAWDIVGEAGVRSVSLRECARRANVSHAAPAHHFGSLENLLAEVVADGYERMVDAVQAAQRELDDPVLGCGMGYVNFARQYPQHFRLMFGMTGVNRALPRLVNSGEATLQLLRQSLRTAWIAKNGVEPEPALLEQRTLLAWSTAHGYASLAIDRTTVEPFVVSAESILQPMAVFLLTP | not soluble
5 | MGHHHHHHSHMIKLENELLLVEMKEAGAELTRIFHKDTKLEYLWNADSTFWGRHSPVLFPTVGRLVEDTYFVDGNPYHLGQHGFARDRDFKVVEHTENAVRFELDADEDSLTIYPYKFKLSIIYTIEKDSVAVSYEVENTDNKRIYFSIGAHPAFNLPLADGTTFEDYYLDFGTEENLETLCLEGPYRSGKIEKVVNEPARYLPLSYDLFKNDALIFEGLKQKEITIKSDKTPHFVKVSFPEFPFVGVWTAKAGTPFLCIEPWYGIADGAGKSVELRDKAGIEHLEPEAVFASEYKITIG | soluble
6 | MQPIPDVNQRIARISAHLHPPKSQMEESSALRRANCRAKGGAPGFKVAILGAAGGIGQPLAMLMKMNPLVSVLHLYDVVNAPGVTADISHMDTGAVVRGFLGQQQLEAALTGMDLIIVPAGVPRKPGMTRDDLFKINAGIVKTLCEGIAKCCPRAIVNLISNPVNSTVPIAAEVFKKAGTYDPKRLLGVTMLDVVRANTFVAEVLGLDPRDVDVPVVGGHAGVTILPLLSQVKPPSSFTQEEISYLTDRIQNGGTEVVEAKAGAGSATLSMAYAAVKFADACLRGLRGDAGVIECAFVSSQVTELPFFASKVRLGRNGIEEVYSLGPLNEYERIGLEKAKKELAGSIEKGVSFIRSHHHHHH | soluble
7 | MGSDKIHHHHHHMSTVSAQEAVSLREAAERRSQFARVPARSVSAPPRKKWFRSKQQLSGAADGMDGSSRAGSQEIVCDEFTKKLVAAITTWHDIHSSLLQLSIERSSNDSNEEHENVSVSSESSWSSASDSESDEDSATGRDSTNNHLSASAARFSISNPDLTNCQIKQMFPEMADHWR | not soluble
8 | MGSDKIHHHHHHMVMEYELRTPLVKDQILKLKVGDVVYITGEIFTARDEAHARALEWMEEGKELPFSFDKGVVYHCGPLVKKNDEWRVVSAGPTTSARMNPFTPKILEKVECMGIIGKGGMSEEVVEAMRGKAAYFAFTGGAGALAAMSIKKVKGVVWEDLGMPEAVWLLEVERFGPCIVAIDAHGNSLYRR | soluble
9 | MPDDKVPTVPDKGADGSPGSSFKNPEILSSQPSESMQAVYEILIQGNNLKTGLPSIVKSQEDLQTLYSVLYGNSLKAPLIDFSKKAVVIAAAGPFNTGGYSIVPVSAIKTGKIINLVFEVKSPGPKDMVTQAFTRPYVIVSVDAEPDTEIFIEINGDAKNDKLDF | not soluble
10 | MTLISRIKQLAQSKQLTLAQLERNVGISNGQIRRWDTSSPKVENLLKIADYFSVSLDYLMGRTQQTEINHQAPMKSTQKELHIHITTEELTEEEITQLEEEANRFLRFRKFEMTNS | not soluble
11 | MGSDKIHHHHHHMLSRTADHLFWMARYTERAENTARMLDVNYQTSLLPQSAEVAEQGWWAMLDISELTNAFDHKYGLLTRDDVIDFMVRDMTNPSSIMSCLRAARENARAVRGSLTTEVWETVNTTWLDVQRMIADGELQEDPSRFFEWVKFRSHLARGVQFGTMLKDDAFHFMRLGTFLERADNTARILDVKFQASGSDDSDPNREQNDFYHWAAVLRSVSGFEVYRKVYRAVITPQRVAELLILRPDMPRSLVSSMDEVVAILAMVCNHQSGETERQAGKLHADLKFARIDDIFAVGLHAFLTSFLERIGDIGNGISRDFLVPLQAA | not soluble
12 | MAKSNSNNSHNEADTLSSLLSSVGSSYDGESDSTFVSTGTTPSSSRRSRLDSFLSTTSSSKSRPRIKSKLPRSSSSGFSGTGSERSISSKRSKIGNTSGNRNKISQSARRRLLQAEIESRRNRSNKSPGSSRKSILKKSPMKKRRSLSRKSLPKKEHIPPVQKFAIIKNPAARNQVRGFVAEYAQDPEFEAFELLVDGIPFVALSLMNAHPDLRGRFKPVPPPTPMKKHTPGINSPRKRPLRRESISSVNSKSVRFTDEGSSFSKRARKSSSGDVDSSIRELGETVSDAMIDTGRQYNDLWKDRAHSVEK | not soluble
13 | MDFKSSDAIRGPRTEDHLPHTAQAAVKIVIVGGFGVGKTTMVGSVSEIRPLTTEETMTQMGIGVDDNYGSESKTATTVAMDFGRISITEQLVLYLFGTPGQERFWFLWNGLFEGALGAVVLIDTRRLEVSFDVIGRLEERGVPFVIAVNDFPDAPRYPVEDLRGALDLTEDIPIVKCDARRRASSREVLMTLMHFLHSLAVSKTSVLEHHHHHH | not soluble
14 | MLGAIIGDIVGSVYEWNNIKTKDFPLFRKDCFFTDDTVMTCAVAEAIMNGGQKDDFIDAMKKYGRMYPNADYGARFNAWLNSDNREPYNSFGNGSAMRISPCAWIMDCGFYAKTGIWPSSRGLTSLSAEVTHNHPEGVKGAMATADAIFLCRFYFGGYCREYEQSINDNPTECKRRIKDYIEKEYDYNLSQTLDEIRPNYRFNETCQETVPQAIIAFLESRDFEDAIRNAISLGGDSDTLAAITCSIAEAAYGIPDWIKDKAYSYLDEPLKDVVRRWENRIKAYLEHHHHHH | soluble
15 | MTEKALDSKQTGYCLSTDHYRIRRALPSDYDSILALWEDARHTMLASDNPQWQGAYPGETEAQEDIARGEAFLLDIAGTPLGVMAVNDQMPAEYGSLPWQTEGKAYTIHRLGVHSSLLRKGYAAAMLFSAETIAREQGGTCIRIDTYSPNTAAQSLFRRLGYRQVCSFHMKQKPLPYIAFEKSLLKQLGSG | not soluble
16 | MSNICKTVSLRTRKIKDGHMLSYYLDYYPGYRDESTMKVIRHESLGIYIYAKPKNQMEQKYNLNLMARAEAIRCRRFEAIVNERYDFFDKEKMKGDFLAYFKKLADKKNSKWQHVYMHFRTFTQGKCTFGEINVDLCNRFREYLLTAPQGLHKNRKLHINSAANYWSTFRASIHTAYRDRKIKENPNGFLERIETIPTDKEHLSQDEVIRLASTPCSAPALKRAFLFSCLTALRKSDIKKLTWEEIQPYGSDGVMYVTTRMQKTKDIVHNPISEEALELIGYSPDKRGKVFPDFK | not soluble
17 | MGSDKIHHHHHHMLKKQLFADRLLAQMPSLRALRCFVTAARYESFTQAAEVLCVTQAAVSRQIKELEDSLDVALFERTGRHIALTDAGRILYNASYLSIMNIAEAAEAVRRTDKHALMICVSHTFSALWLSSRLPAFRERFPDIRLNLIVTEHFMELDGLIEPDVIITKNPPREPEFDVEPMFHDIVYPVCSPAFHERHFHGRSLKPLDLLSRPTLNLSMLGRAQVCEHVDWRVWRNWFQQGDGTDTLTENKYLESNDYRLLVAQAEAGEGTLLGWHHLVHRQIDQGILMRPVQDVLVFRDRHHYLITHRNAQPRPEYQQFRQWLNDEVGVMMRGWLDAGVEGEQ | not soluble
18 | MYSYKHPIYCANPVLSGQKIIELPPMNVPFSTYYEVYVTVQDHIPISSFVSMDLIMKNDNYSGGNFQVYSKDVSGILASHSNHFSPVTYSMQLQYEYKNWAEEDTQVRVYSDRLPPYWLPYCD | not soluble
19 | MNSKCHCVILNDGNFIPVLGFGTALPLECPKSKAKELTKIAIDAGFHHFDSASVYNTEDHVGEAIRSKIADGTVRREDIFYTSKVWCTSLHPELVRASLERSLQKLQFDYVDLYLIHYPMALKPGEENFPVDEHGKLIFDRVDLCATWEAMEKCKDAGLTKSIGVSNFNYRQLEMILNKPGLKYKPVCNQVECHPYLNQMKLLDFCKSKDIVLVAYGVLGTQRDGGWVDQNSPVLLDEPVLGSMAKKYNRTPALIALRYQLQRGIVVLNTSLKEERIKENMQVFEFQLSSEDMKVLDGLNRNMRYIPAAIFKGHPNWPFLDEY | soluble
20 | DIQMTQSPSSLSASVGDRVTITCRSSQSLVHNNANTYLHWYQQKPGKAPKLLIYKVSNRFSGVPSRFSGSGSGTDFTLTISSLQPEDFATYYCSQNTLVPWTFGQGTKVEIKRTVAAPSVFIFPPSDEQLKSGTASVVCLLNNFYPREAKVQWKVDNALQSGNSQESVTEQDSKDSTYSLSSTLTLSKADYEKHKVYACEVTHQGLSSPVTKSFNRGEC | soluble
21 | MANAFGLSLGTALRRDPAEGPVRPQRPLGRLIWLHAPTRDSARPMAELGRRIILDEGFPVLLTTHVPVSSGGILIVQPPPPDTPAAVAAFLDHWRPDAAFMAEGELRPSLINSAFDRNVPLALVDGAAPRILPGRESWWPGQMRNLLAKFRHIFTLDEAAARAFRKAGSSSHVTQVAGRLEEGSLALPCTEAERAALARLLAPRQVWLAAGLPIEEEAAAIAAHHAALKLAHRMLLIVVPQEPDRAAAFAARCEAEGWKVARRAADEEPDADTEVFVADGMAELGLWYRLAPVTWLGGSLSVGCVLDPLEAASLGSALIHGPHFGPHGATLARLSAARASLPVASARGLAEALADLLAPDRVARLAHAGWAVASEGTEVTDRMVALAGRLVEREALEHHHHHH | not soluble
22 | MAYRNIKIVKGNGGFGGPLIIAPTDEKHKFIYITGGGEKPEIVDKIVELTGMEAVNGFKTSIPDEEIALAIVDCGGTLRCGIYPKKGIPTINIVATGKSGPLAQYITEDIYVSAVGMEQITSIEESAGSIETKEAKAETAQSQTGTGTYDTSKKITEQRAQQSVIARIGMGAGKVVAVFNQAARDAIQ | not soluble
23 | MGSDKIHHHHHHLLQAELGITSQRHFYSIGHLFPCGQLLERSRFNRRSKQLIWLVQFIRKAMSEMLPSDKLAIIDSFPLPLCQPVRNHRASIFKGLADIGYNASKHLWFYGFKVHMLVTLSGYILNYVVTPASVHDIKVVYELLEGCKQSVILGDLGYLSSELKKDLEQEGYHLWTPFRKNMTGAEEHNNWKVMAMRRTIETRFSELCRLFDIEHTLTRSLAGLQLRMEQIILAHNLRYFEMN | not soluble
